Experimental data as given in publication PMC5640511 (Current Biology, 2017).

Target: Bub3 (recombinant, untagged) (human, UniProt O43684 1-328)
Test: SEC

Chain of Bub3 (recombinant, untagged) (O43684 whole entry): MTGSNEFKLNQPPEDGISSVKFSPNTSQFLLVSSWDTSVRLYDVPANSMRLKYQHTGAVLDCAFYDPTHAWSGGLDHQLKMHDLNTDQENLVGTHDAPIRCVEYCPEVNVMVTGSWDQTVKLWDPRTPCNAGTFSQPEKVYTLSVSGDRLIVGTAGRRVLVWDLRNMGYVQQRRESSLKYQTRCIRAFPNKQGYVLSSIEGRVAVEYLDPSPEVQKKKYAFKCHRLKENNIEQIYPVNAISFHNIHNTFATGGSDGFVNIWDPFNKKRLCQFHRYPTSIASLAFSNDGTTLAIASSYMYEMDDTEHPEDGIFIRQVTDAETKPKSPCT

binding result: binds
B1: BubR1 1-571 B1-LL (recombinant) (other)
chain: MAAVKKEGGALSEAMSLEGDEWELSKENVQPLRQGRIMSTLQGALAQESACNNTLQQQKRAFEYEIRFYTGNDPLDVWDRYISWTEQNYPQGGKESNMSTLLERAVEALQGEKRYYSDPRFLNLWLKLGRLCNEPLDMYSYLHNQGIGVSLAQFYISWAEEYEARENFRKADAIFQEGIQQKAEPLERLQSQHRQFQARVSRQTLLALEKEEEEEVFESSVPQRSTLAELKSKGKKTARAPIIRVGGALKAPSQNRGLQNPFPQQMQNNSRITVFDENADEASTAELSKPTVQPWIAPPMPRAKENELQAGPWNTGRSLEHRPRGNTASLIAVPAVLPSFTPYVEETARQPVMTPCKIEPSIRRVITISKSEYSVHSSLASKVDVEQVVMYCKEKIYAGVGEFSFEEIRAEVFRKKLKEQREAELLTSAEKRAEMQKQIEEMEKKLKEIQTTQQERTGDQQEETMPTKETTKLQIASESQKIPGMTLSSSVCQVNCCARETSLAENIWQEQPHSKGPSVPFSIFDEFLLSEKKNKSPPADPPRVLAQRRPLAVLKTSESITSNE
